Assay results published in patent US20230324389.

Chain of MMP9 (chain, as listed by the source): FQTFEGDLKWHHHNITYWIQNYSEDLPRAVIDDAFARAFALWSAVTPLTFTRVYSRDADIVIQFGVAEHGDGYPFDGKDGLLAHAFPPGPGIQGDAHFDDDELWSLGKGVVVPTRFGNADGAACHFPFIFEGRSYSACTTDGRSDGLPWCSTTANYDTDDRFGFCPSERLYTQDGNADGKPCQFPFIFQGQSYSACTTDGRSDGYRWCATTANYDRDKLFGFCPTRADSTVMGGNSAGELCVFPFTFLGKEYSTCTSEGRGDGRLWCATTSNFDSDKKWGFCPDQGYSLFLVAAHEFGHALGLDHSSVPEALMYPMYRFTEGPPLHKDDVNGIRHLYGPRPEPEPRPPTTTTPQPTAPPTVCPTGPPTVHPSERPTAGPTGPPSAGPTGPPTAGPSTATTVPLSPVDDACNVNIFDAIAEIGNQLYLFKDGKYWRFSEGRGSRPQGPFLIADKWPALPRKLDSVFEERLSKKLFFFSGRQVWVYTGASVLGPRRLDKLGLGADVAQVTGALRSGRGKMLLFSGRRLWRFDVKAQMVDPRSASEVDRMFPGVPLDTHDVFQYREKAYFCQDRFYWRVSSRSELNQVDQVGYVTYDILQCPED

Substance: Urokinase-type Plasminogen Activator (uPA)
- unmasking (protease cleavage) activity (818-C1 MB): Unmasking activity attributable to uPA required higher concentrations of proteases and longer digestion times
- unmasking (protease cleavage) activity (818-C1MA): Unmasking activity attributable to uPA required higher concentrations of proteases and longer digestion times
- unmasking (protease cleavage) activity (818-P1): Unmasking activity attributable to uPA required higher concentrations of proteases and longer digestion times

Substance: MMP9
- unmasking (protease cleavage) rate (818-C1 MB): MMP9: 818-P1>818-C1 MB>818-C1MA
- unmasking (protease cleavage) rate (818-C1MA): MMP9: 818-P1>818-C1 MB>818-C1MA
- unmasking (protease cleavage) rate (818-P1): MMP9: 818-P1>818-C1 MB>818-C1MA
